Series [1] concerns the target T1, human CD40 ligand (hCD40L) (Homo sapiens, UniProt P29965 113-261). Kind of series: BLI. Background: In BLI a coated tip is dipped into the sample, and binding shifts an interference pattern.
Series [2] has as its target T1, human CD40 ligand (hCD40L). Kind of series: BLI. This is another data set of the same source.

Read-outs that look alike come from different tables or passages of the source.

Consider two molecules from paper doi:10.1101/2025.04.09.647959.

T1 sequence (P29965 113-261): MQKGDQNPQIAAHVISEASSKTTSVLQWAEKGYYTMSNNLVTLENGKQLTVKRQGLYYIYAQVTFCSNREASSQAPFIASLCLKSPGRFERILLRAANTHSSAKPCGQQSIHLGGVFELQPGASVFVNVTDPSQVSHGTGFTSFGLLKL

B1: hCD40L-1 (LNA-T, 2'F-C) (XNA)
DNA: GGGAGGAGGAAGCGGAAAAAGCAGGTGTGAAAAGGACGTCAAACGACGTGACACACAGACGACACGCCCGA
modifications: all T are LNA-T; all C are 2'F-C; A and G ribo
On to B1, for which the binding result in series [1] is recorded as “binds”.

B2: hCD40L-4 (LNA-T, 2'F-C) (XNA)
DNA: GGGAGGAGGAAGCGGACGATGAACAAGTTGAAAAGGAATTTAAACGAATTAACAACAGACGACACGCCCGA
modifications: all T are LNA-T; all C are 2'F-C; A and G ribo
As for B2, in series [2], the binding result is given as “binds”.
